In assay [1] the test system is primary human corneal stromal cells. The experiment in a line: proliferation of cultured stromal keratocytes (cell counting, Cell Titer 96 AQueous assay). The format is cell-based. As to conditions: 20 or 100 ng/ml; serum-free medium; D6; p<0.005. How it is done:
In order to investigate the effect of GDNF on the proliferation of cultured stromal keratocytes the cells were passaged from DMEM +10% FBS into DMEM +1% FBS or into DMEM without FBS at a density of 5×10^4 cells/60 mm dish. Some cultures received recombinant human GDNF at the above-mentioned concentrations. Proliferation was measured after 6 days by counting cells under the phase contrast microscope (50 fields at 100×magnification per condition) as well as trypsinized cells. Also a Cell Titer 96 AQueous One Solution proliferation assay (Promega) was performed according to the manufacturess description. For this calorimetric assay 500 or 1000 cells were grown for 6 days in 96-well-plates (Falcon). Upon addition to the culture well a titrazolium dye is bioreduced by cells into a colored formazan product and the absorbance is quantified at 490 nm. The quantity of the formazan product is proportional to the number of living cells in the well and can therefore serve to estimate proliferation.

Assay [2] relates to ERK1, ERK2, JNK1 and JNK2. The assay can be described thus: western blot of phosphorylated MAP kinases in cultured human corneal stromal keratocytes. The format is cell-based. How it is done:
In order to evaluate the effect of GDNF and other neurotrophic factors on the activation of signal transduction pathways in cultured corneal epithelial and stromal keratocytes, western blots were performed for detecting an accumulation of phosphorylated MAP kinases ERK and JNK in the presence of GDNF, NGF and BDNF. Human stromal keratocytes were cultured in RPMI 1640 medium containing L-glutamine (glutaMAX) or DMEM with 10% FBS for one day and starved in serum-free medium for another day. Cultures were then washed with PBS and incubated in serum-free DMEM without additives or with recombinant human GDNF (200 ng/ml), recombinant human NGF (200 ng/ml) and recombinant human BDNF (200 ng/ml) (all obtained from R & D Systems, Mineapolis, Minn., USA) for 30 min. Some cultures were incubated with an inhibitor of MAP kinases (PD 98059, Torcris Cookson Ballwin, Mo., USA) at 100 μM for 1 h prior to exposure to neurotrophines. After washing with PBS, culture cells were solubilized in lysis buffer containing 50 mM Tris-Cl (pH 8.0), 150 mM NaCl, 0.02% sodium azide, 100 μg/ml PMSF, 1% Triton X-100 and a mixture of several protein inhibitors (Complete®, Boehringer Mannheim) (one tablet/50 ml buffer). 50 μg total protein per lane was fractionated by a 10% STS-MOPS NUPAGE Bis-tris gel (NOVEX, San Diego, Calif., USA) and blotted onto nitrocellulose membrane. Membranes were stained with diluted polyclonal antibodies against ERK1, ERK2, JNK1 and JNK2 (Santa Cruz Biotechnology, Santa Cruz, Calif., USA). Also a polyclonal antibody was used which recognizes the […] form of either ERK1 and ERK2 which was raised against the catalytic core of the phosphorylated threonine residue 183 and tyrosine residue 185 of mammalian ERK2. Similarily, a polyclonal antibody recognizing the phosphorylated form of JNK1 and JNK2 was used (both from Promega). In the last step the membranes were visualized with the ECL western blot analysis system (Amersham).

Assay [3] has as its system FAK, Pyk2, cRaf, MEK1, Erk 1 and 2, Elk, RSK. The assay can be described thus: western blot of phosphorylated intracellular signaling proteins in corneal epithelial cells. The format is cell-based, human. How it is done: In order to investigate which protein kinase cascades are activated by GDNF and artemin, corneal epithelial cells from the cell line were seeded at a density of 5×10^5 cells/75 cm^2 and cultured in SHEM with 10% FBS for one day. Cultures were then washed with PBS and incubated in serum-free SHEM without additives or with GDNF (200 ng/ml) or with artemin (250 ng) for 10 to 40 minutes. After washing with PBS, cultured cells were solubilized in lysis buffer containing 50 mM Tris2Cl (pH8.0), 150 mM NaCl, 0.02% sodium azide, 100 μg/ml phenylmethylsulfonyl fluoride, 1 mM Na3VO4, 1% Triton X-100 and a mixture of several protease inhibitors [complete™, Boehringer Mannheim (1 tablet/30 ml buffer)]. 80 μg total protein per lane was fractionated by NuPAGE 10% SDS-MOPS-Bis-Tris gel or NuPAGE 3-8% Tris-acetate gel (all from NOVEX, San Diego, Calif.) and blotted onto a nitrocellulose membrane. Phosphorylated proteins were detected with phospho-specific antibodies and visualized with the ECL western blot analysis system (Amersham). Antibodies against phospho-Raf(ser259), phospho-MEK1/2(ser217/221), phospho-MAPK (Erk1/2) (thr202/tyr204), phospho-p90 ribosomal S6 kinase (RSK) (ser381) and phospho-Elk-1(ser383) were obtained from New England Biolabs (Beverly, Mass.). Antibody against phospho-FAK (tyr397/tyr407/tyr576/tyr577/tyr861/tyr925) and phospho-Pyk2 (tyr402/tyr579/tyr/580/tyr881) were purchased from Biosource (Camarillo, Calif., USA). A monoclonal antibody against phospho-tyrosine came from Sigma (Deisenhofen, Germany).

The mark [4] stands for this setting: GDNF 200 ng/ml, within 10 minutes.
The mark [5] stands for this setting: GDNF 200 ng/ml, within 40 minutes.

B1: GDNF: recombinant human GDNF having the amino acid sequence of human wild-type GDNF (GenBank L19063, L15306) (protein)
chain: SPDKQMAVLPRRERNRQAAAANPENSRGKGRRGQRGKNRGCVLTAIHLNVTDLGLGYETKEELIFRYCSGSCDAAETTYDKILKNLSRNRRLVSDKVGQACCRPIAFDDDLSFLDDNLVYHILRKHSAKRCGCI
B1: the “proliferation of stromal keratocytes” value in assay [1] was “significantly enhanced”. Further, the “activated JNK2” value in assay [2] is on record as “not induced”. In addition, the “phosphorylation of ERK1 and ERK2” value in assay [2] (200 ng/ml factor vs control) is listed as “induced ERK1 to a limited extent”. Besides, in assay [2] (vs serum-free medium), the “phosphorylation of JNK1” value was “weakly induced”. For the same molecule, in assay [3] (setting [4]), the “serine phosphorylation of Elk” value is reported as “significantly induced”; the “serine phosphorylation of MEK1” value is recorded as “significantly induced”; the “serine phosphorylation of cRaf” value is on record as “significantly induced”; the “tyrosine/threonine phosphorylation of Erk 1 and 2” value was “significantly induced”. In assay [3] (setting [5]), the “phosphorylation of Pyk2” value is “phosphorylated” and the “tyrosine phosphorylation of FAK” value is “gradually increased”. The “phosphorylation of RSK” value in assay [3] (in response to GDNF) is on record as “not detectable”.

The values are drawn from patent US20030166537A1, “Use of GDNF for treating corneal defects” (Biopharm Gesellschaft Zur Biotechnologischen Entwicklung …, priority 1999, published 2003).
